From patent US20230322953A1 (HARBOUR BIOMED SHANGHAI, published 2023)

Assays:
[1] = biological target: T1, human CTLA4 on CHO-K1/hCTLA4 cells (human, UniProt P16410 36-223); test: flow cytometry on CHO-K1/hCTLA4 cells, Experiment 2
T1 construct: whole, on cells; CHO-K1 cell line highly expressing human CTLA4; also called human CTLA4 cell

[2] = biological target: T1, human CTLA4 on CHO-K1/hCTLA4 cells; test: flow cytometry competition: biotinylated human B7-1-Fc on CHO-K1/hCTLA4 cells, Experiment 1
[3] = biological target: T1, human CTLA4 on CHO-K1/hCTLA4 cells; test: flow cytometry on CHO-K1/hCTLA4 cells, Experiment 1
[4] = biological target: T1, human CTLA4 on CHO-K1/hCTLA4 cells; test: flow cytometry on CHO-K1/hCTLA4 cells, Experiment 3
[5] = biological target: T2, biotinylated human CTLA4-Fc protein (ACRO Biosystems, #CT4-H82F3) (human, UniProt P16410 36-161, biotinylated); test: competition ELISA: coated human B7-1-Fc, biotinylated human CTLA4-Fc, Experiment 2
T2 construct: Bought protein; also called human CTLA4 protein

[6] = biological target: T1, human CTLA4 on CHO-K1/hCTLA4 cells; test: flow cytometry competition: biotinylated human B7-1-Fc on CHO-K1/hCTLA4 cells, Experiment 2
[7] = biological target: T2, biotinylated human CTLA4-Fc protein …; test: competition ELISA: coated human B7-1-Fc, biotinylated human CTLA4-Fc, Experiment 1
[8] = biological target: T3, cynomolgus monkey BCMA on cells (HEK293T/cyno BCMA) (cynomolgus monkey, UniProt A0A2K5UD97 1-183); test: FACS, HEK293T/cyno BCMA cells
T3 construct: whole, on cells

[9] = biological target: T4, cynomolgus monkey BCMA (ACRO Biosystems, #BCA-C82F4) (cynomolgus monkey, UniProt A0A2K5UD97 1-53); test: BLI, Octet Red96e
T4 construct: bought; also called cyBCMA.Fc

[10] = biological target: T5, human CTLA4 on cells (CHO-K1/hCTLA4; HEK293/hCTLA4; 293F-hCTLA4) (human, UniProt P16410 36-223); test: competition FACS: biotinylated B7-1-Fc to CHO-K1/hCTLA4 cells
T5 construct: whole, on cells

[11] = biological target: T6, human 4-1BB (human, UniProt Q07011 24-255); test: flow cytometry, CHO-K1/hu 4-1BB cells
T6 construct: whole, on cells; also called CD137; TNFRSF9

[12] = biological target: T5, human CTLA4 on cells (CHO-K1/hCTLA4; …); test: FACS, CHO-K1/hCTLA4 cells (Test 1)
[13] = biological target: T7, biotinylated human CTLA4-Fc protein (ACRO Biosystems, #CT4-H82F3) (human, UniProt P16410 36-161, biotinylated); test: competition ELISA: biotinylated hCTLA4-Fc to coated B7-1-Fc
T7 construct: bought; also called human CTLA4 protein

[14] = biological target: T8, human PD-L1 on cells (CHO-K1/hPDL1; MDA-MB-231) (human, UniProt Q9NZQ7 19-290); test: competition FACS: biotinylated PD-1 to CHO-K1/hPDL1 cells (Experiment 1)
T8 construct: whole, on cells

[15] = biological target: T5, human CTLA4 on cells (CHO-K1/hCTLA4; …); test: competition FACS: biotinylated B7-1-Fc to CHO-K1/hCTLA4 cells (Test 1)
[16] = biological target: T7, biotinylated human CTLA4-Fc protein …; test: competition ELISA: biotinylated hCTLA4-Fc to coated B7-1-Fc; remark: listed apart in the source
[17] = biological target: T9, human CTLA4-His protein (ACRO Biosystems, #CT4-H5229) (human, UniProt P16410 36-161); test: ELISA, coated hCTLA4-His
T9 construct: extracellular domain; bought; also called hCTLA4-His; human CTLA4 extracellular domain recombinant protein

[18] = biological target: T10, human PD-L1-His protein (ACRO Biosystems, #PD1-H5229) (human, UniProt Q9NZQ7 19-238); test: ELISA, coated hPD-L1-His
T10 construct: extracellular domain; bought; also called hPDL1-His; human PD-L1 extracellular domain recombinant protein

[19] = biological target: T8, human PD-L1 on cells (CHO-K1/hPDL1; …); test: FACS, CHO-K1/hPDL1 cells (Experiment 1)
[20] = biological target: T9, human CTLA4-His protein (ACRO …); test: ELISA, coated hCTLA4-His; remark: listed apart in the source

EC50 [12] | Maximum MFI [12] | IC50 [14] | Maximum inhibition rate (%) [14] | IC50 [15] | Maximum inhibition rate (%) [15] | IC50 [16] | Maximum inhibition rate (%) [16] | EC50 [17] | Maximum OD450 [17] | EC50 [18] | Maximum OD450 [18] | EC50 [19] | Maximum MFI [19] | Binder | also measured
– | – | – | – | – | – | – | – | – | – | – | – | – | – | Anti-CTLA4 heavy-chain antibody CL5v3, hIgG1 (antibody, V domains shown, Heavy-chain-only antibody (HCAb), no light chain; parent of the CTLA4 end of the HER2xCTLA4 bispecifics; also called PR000184) VH: EVQLVESGGGLIQPGGSLRLSCAVSGFTVSKNYMSWVRQAPGKGLEWVSVVYSGGSKTYADSVKGRFTISRDNSKNTLYLQMNSLRAEDTAVYYCARAVPHSPSSFDIWGQGTMVTVSS | EC50 [1]: 1.79 nM; Maximum MFI [1]: 1080 MFI; IC50 [2]: 1.69 nM; Maximum inhibition rate [2]: 99.6%; EC50 [3]: 1.59 nM; Maximum MFI [3]: 214 MFI; EC50 [4]: 3.05 nM; IC50 [5]: 1.69 nM; IC50 [6]: 0.239 nM; IC50 [7]: 2.46 nM
– | – | – | – | – | – | – | – | – | – | – | – | – | – | PR002199, BCMA×CD3 bispecific antibody derived from WO2019133761A1 (bispecific antibody, human IgG1, kappa, L234A L235A, also called positive control 2) chain 1: not shown chain 2: EVQLVESGGGLVQPGRSLRLSCAASGFTFDDYAMHWVRQAPGKGLEWVSGISWNSGSIGYADSVKGRFTISRDNAKNSLYLQMNSLRAEDTALYYCAKDSRGYGDYRLGGAYWGQGTLVTVSSASTKGPSVFPLAPSSKSTSGGTAALGCLVKDYFPEPVTVSWNSGALTSGVHTFPAVLQSSGLYSLSSVVTVPSSSLGTQTYICNVNHKPSNTKVDKKVEPKSCDKTHTCPPCPAPEAAGGPSVFLFPPKPKDTLMISRTPEVTCVVVDVSHEDPEVKFNWYVDGVEVHNAKTKPREEQYNSTYRVVSVLTVLHQDWLNGKEYKCKVSNKALGAPIEKTISKAKGQPREPQVYTLPPCREEMTKNQVSLWCLVKGFYPSDIAVEWESNGQPENNYKTTPPVLDSDGSFFLYSKLTVDKSRWQQGNVFSCSVMHEALHNHYTQKSLSLSPGK chain 3: EVQLLESGGGLVQPGGSLRLSCAASGFTVSSYGMSWVRQAPGKGPEWVSGIRGSDGSTYYADSVKGRFTISRDNSKNTLYLQMNSLRAEDTAVYYCAKQGENDGPFDHRGQGTLVTVSSGGGGSEVQLLESGGGLVQPGGSLRLSCAASGFTVSSYGMSWVRQAPGKGPEWVSGIRGSDGSTYYADSVKGRFTISRDNSKNTLYLQMNSLRAEDTAVYYCAKQGENDGPFDHRGQGTLVTVSSASEPKSSDKTHTCPPCPAPEAAGGPSVFLFPPKPKDTLMISRTPEVTCVVVDVSHEDPEVKFNWYVDGVEVHNAKTKPREEQYNSTYRVVSVLTVLHQDWLNGKEYKCKVSNKALGAPIEKTISKAKGQPREPQVCTLPPSREEMTKNQVSLSCAVKGFYPSDIAVEWESNGQPENNYKTTPPVLDSDGSFFLVSKLTVDKSRWQQGNVFSCSVMHEALHNHYTQKSLSLSPGK | binding result [8]: no binding; binding result [9]: no binding
– | – | – | – | – | – | – | – | – | – | – | – | – | – | PR002672 (bispecific antibody, HER2×CTLA4, structure 18 Fab(cross Fd/LC)-Fc-VH-VH) chain 1: not shown chain 2: not shown chain 3: EVQLVESGGGLIQPGGSLRLSCAVSGFTVSKNYMSWVRQAPGKGLEWVSVVYSGGSKTYADSVKGRFTISRDNSKNTLYLQMNSLRAEDTAVYYCARAVPHSPSSFDIWGQGTMVTVSSGGGGSEVQLVESGGGLIQPGGSLRLSCAVSGFTVSKNYMSWVRQAPGKGLEWVSVVYSGGSKTYADSVKGRFTISRDNSKNTLYLQMNSLRAEDTAVYYCARAVPHSPSSFDIWGQGTMVTVSSEPKSSDKTHTCPPCPAPELLGGPDVFLFPPKPKDTLMISRTPEVTCVVVDVSHEDPEVKFNWYVDGVEVHNAKTKPREEQYNSTYRVVSVLTVLHQDWLNGKEYKCKVSNKALPAPEEKTISKAKGQPREPQVCTLPPSREEMTKNQVSLSCAVKGFYPSDIAVEWESNGQPENNYKTTPPVLDSDGSFFLVSKLTVDKSRWQQGNVFSCSVMHEALHNHYTQKSLSLSPGK | fold poorer IC50 than the parent monoclonal antibody [10]: ~4 fold
– | – | – | – | – | – | – | – | – | – | – | – | – | – | PR001760, anti-4-1BB heavy-chain antibody 1016P0011G10, hIgG1 (antibody, V domains shown, Heavy-chain-only antibody (HCAb), no light chain) VH: EVQLVESGGGVVQPGGSLRLSCAASGFTFSNYAMTWVRQAPEKGLEWVSSISGSGVSTYYADSVKGRFTISRDNSKNTLYLQMTRLTAEDTAVYFCAKEGSSETDDHYYNVDVWGQGTTVTVSS | EC50 [11]: 3.76 nM; Maximum MFI [11]: 83600
26.1 nM | 1570 MFI | 0.64 nM | 96.7% | 71.2 nM | 49% | 11.6 nM | 98.9% | 10.6 nM | 3.55 OD450 | 0.152 nM | 3.54 OD450 | 0.737 nM | 18600 MFI | PR000302 (bispecific antibody, human IgG1, kappa) DIQMTQSPSTLSASVGDRVTVTCRASQSIYIWLAWYQQKPGKAPNLLIYKASSLETGVPSRFSGSGSGTEFTLTISSLQPDDFATYYCQQYYGSSRTFGQGTKVEIKRTVAAPSVFIFPPSDEQLKSGTASVVCLLNNFYPREAKVQWKVDNALQSGNSQESVTEQDSKDSTYSLSSTLTLSKADYEKHKVYACEVTHQGLSSPVTKSFNRGECEPKSSDKTHTPPPPPEVQLVESGGGLIQPGGSLRLSCAVSGFTVSKNYMSWVRQAPGKGLEWVSVVYSGGSKTYADSVKGRFTISRDNSKNTLYLQMNSLRAEDTAVYYCARAVPHSPSSFDIWGQGTMVTVSS heavy: not shown | fold weaker IC50 than PR000184 [13]: 4 fold
4.36 nM | 2040 MFI | 0.695 nM | 95.9% | 9.71 nM | 83.3% | 4.12 nM | 97.3% | 1.57 nM | 2.72 OD450 | 0.241 nM | 3.52 OD450 | 0.848 nM | 18000 MFI | PR000303 (bispecific antibody, human IgG1, kappa) light: DIQMTQSPSTLSASVGDRVTVTCRASQSIYIWLAWYQQKPGKAPNLLIYKASSLETGVPSRFSGSGSGTEFTLTISSLQPDDFATYYCQQYYGSSRTFGQGTKVEIKRTVAAPSVFIFPPSDEQLKSGTASVVCLLNNFYPREAKVQWKVDNALQSGNSQESVTEQDSKDSTYSLSSTLTLSKADYEKHKVYACEVTHQGLSSPVTKSFNRGEC not shown | fold poorer EC50 than PR000184 [20]: 2.6 fold
